Patent US6884600

T1: GST-M110-(M1-E309), GST tag not cleaved
T1 chain: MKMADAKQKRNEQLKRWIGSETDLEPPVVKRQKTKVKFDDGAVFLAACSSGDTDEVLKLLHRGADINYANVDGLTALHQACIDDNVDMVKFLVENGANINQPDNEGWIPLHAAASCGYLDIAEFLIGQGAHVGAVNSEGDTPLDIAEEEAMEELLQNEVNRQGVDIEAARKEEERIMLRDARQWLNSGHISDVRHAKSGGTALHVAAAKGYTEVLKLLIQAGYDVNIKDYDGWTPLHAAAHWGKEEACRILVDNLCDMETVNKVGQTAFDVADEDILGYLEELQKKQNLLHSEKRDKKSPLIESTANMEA


How the values were obtained:
[1] = biological target: catalytic subunit of protein phosphatase-1, γ1-isoform (PP1γ1), produced in Escherichia coli (UniProt P36873); experiment: co-crystal structure at 3.0 Å, method of Lee and Richards
Chain of catalytic subunit of protein phosphatase-1, γ1-isoform (PP1γ1), produced in Escherichia coli (P36873 whole entry, canonical isoform): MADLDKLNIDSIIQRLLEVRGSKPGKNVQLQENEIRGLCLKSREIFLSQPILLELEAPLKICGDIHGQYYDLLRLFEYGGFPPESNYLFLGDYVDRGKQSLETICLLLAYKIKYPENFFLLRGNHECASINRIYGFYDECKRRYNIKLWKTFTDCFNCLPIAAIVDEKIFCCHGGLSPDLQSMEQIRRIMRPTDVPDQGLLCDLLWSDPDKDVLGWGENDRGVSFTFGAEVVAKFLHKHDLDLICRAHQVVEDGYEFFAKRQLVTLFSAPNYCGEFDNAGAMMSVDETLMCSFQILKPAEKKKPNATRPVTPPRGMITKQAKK

[2] = biological target: T1, GST-M110-(M1-E309), GST tag not cleaved

total solvent accessible surface area buried on formation of the complex [1] [Å2]	Binder	concentration needed to modulate the substrate specificity of PP1c, relative to the cleaved fragment [2]
980	GRRVSFADNFGFN [GM-(G63-N75) synthetic peptide]	–
–	β isoform of PP1c released from rabbit skeletal muscle PP1G (protein) ADGELNVDSLITRLLEVRGCRPGKIVQMTEAEVRGLCIKSREIFLSQPILLELEAPLKICGDIHGQYTDLLRLFEYGGFPPEANYLFLGDYVDRGKQSLETICLLLAYKIKYPENFFLLRGNHECASINRIYGFYDECKRRFNIKLWKTFTDCFNCLPIAAIVDEKIFCCHGGLSPDLQSMEQIRRIMRPTDVPDTGLLCDLLWSDPDKDVQGWGENDRGVSFTFGADVVSKFLNRHDLDLICRAHQVVEDGYEFFAKRQLVTLFSAPNYCGEFDNAGGMMSVDETLMCSFQILKPSEKKAKYQYGGLNSGRPVTPPRTANPPKKR	If the GST tags were not cleaved with thrombin, a 10-fold higher concentration of M110-(M1-E309) was needed to modulate the substrate specificity of PP1c
